# Molecular target: Vβ17 (on cells expressing Vβ17)
# Test: cell-based or functional assay
# Chain of Vβ17 (on cells expressing Vβ17) (A0A075B6N1 22-114): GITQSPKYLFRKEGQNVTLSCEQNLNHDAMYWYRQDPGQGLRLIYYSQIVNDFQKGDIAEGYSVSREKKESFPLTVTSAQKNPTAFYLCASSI
row,Cell Internalization (EC50),Binder
1,0.29 nM,"20A9A9 (antibody, V domains shown) VH: EVQLQESGPGLVQPSQSLSITCTVSGFSLTSYGVHWVRQSPGKGLEWLGIIWSAGGTDYNAAFISRLSISKDNSKSQIFFKLNSLHADDTAIYFCARGSFYDYGRLDYWGQGTTLTVSS VL: DIVMTQSHRFMSTSVGDRVSITCKASQDVSTAVAWYQQKPGQSPKLLIYSSSYRYTGVPDRFTGSGSGTDFTFTISSVQAEDLAVYYCQQHYGTPYTFGGGTKLEIQ"
2,0.06 nM,"20C12A3 (antibody, V domains shown) VH: EVQLQESGAELVRPGTSVKMSCKASGYTFTHYWIDWTKQRPGHGLEWIGNIYPGGGYTNYNENFKGKATLTADKSSSTVFMQFSSLTSDDSAIYYCTRKGYYYGSDWYFDVWGTGTTVTVSS VL: STSVGDRVSITCKASQDVSTAVAWYHQKPGQSPKLLIYSASYRYTGVPDRFTGSGSGTDFTFTISSVQAEDLAVYYCQQHYTTPYTFGGGTKLEMK"
3,15.4 nM,"23A9B10 (antibody, V domains shown) VH: EVQLQESGPGLVKPSQSLSLTCSVTGYSITSGYYWNWIRQFLGNKLEWMGYITYDGSNNYNPSLKDRISITRDTSKNQFFLNLNSVTTDDTATYYCARGGGYVPVWGTGTTVTVSS VL: IQMTQSPAFLSVSPGERVSFSCRASQNIGTSIHWYQQRTNGSPRLLIKYASESISGIPSRFSGSGSGTDFTLSINSVESEDFADYYCHQSHNWPTTFGAGTKLELK"

# Source: patent US20250092134A1 (Janssen / Centocor, published 2025)
